Measurements taken from article PMC12871931, “The importin‐alpha superfamily engages in ethylene signaling by shuttling [sequence] INSENSITIVE 2 from the endoplasmic reticulum to the nucleus” (The Febs Journal, 2025).
Ends that are not written are not given here. * marks the point of attachment. 5‑TAMRA = 5-carboxytetramethylrhodamine, N-terminal label, CN(C)c1ccc2c(-c3ccc(C(=O)*)cc3C(=O)[O-])c3ccc(N(C)C)cc3[o+]c2c1

Assays:
Conditions in all cases: both partners purified
[1] = target: T1, importin α4 (IMPα4), Arabidopsis thaliana, recombinant (Arabidopsis thaliana, UniProt O80480 1-538, biotin (Biotin-PEG4-NHS ester Protein Labeling Kit) in the BLI experiments only); assay: BLI; Octet K2; biotinylated ΔIBB_IMPα1 or IMPα4 loaded (15 μM, 600 s) on streptavidin biosensors; peptides/protein in solution; 100 mM Tris pH 7.0, 100 mM KCl, 0.01% Tween 20; room temperature; 300 s association, 300 s dissociation; dose response curves, 1:2 heterogeneous ligand model
T1 construct: importin alpha isoform 4 of Arabidopsis thaliana; gene isolated from A. thaliana, cloned into pETEV21a; Unlabelled in fluorescence polarisation; biotinylated and held on streptavidin tips in BLI; source: E. coli BL21pRARE, purified (Ni2+-IMAC)

[2] = target: T1, importin α4 (IMPα4), Arabidopsis …; assay: fluorescence polarisation; competition: TAMRA-NOP-1 and IMPα4 (6 μM) held constant, unlabelled competitor concentration varied; Logistic Fit in Origin; n = 3
[3] = target: T2, importin α9 (IMPα9), Arabidopsis thaliana, recombinant (Arabidopsis thaliana, UniProt F4KF65 1-519); assay: fluorescence polarisation; direct titration: TAMRA-NOP-1 constant at 250 nM, IMPα protein concentration varied; 50 μL samples; LS55 spectrometer; Kd by Logistic Fit in Origin; three independent measurements
T2 construct: importin alpha isoform 9 of Arabidopsis thaliana; gene synthesised by GenScript, cloned into pETEV21a; source: E. coli BL21pRARE, purified (Ni2+-IMAC)
T2 sequence (looked up): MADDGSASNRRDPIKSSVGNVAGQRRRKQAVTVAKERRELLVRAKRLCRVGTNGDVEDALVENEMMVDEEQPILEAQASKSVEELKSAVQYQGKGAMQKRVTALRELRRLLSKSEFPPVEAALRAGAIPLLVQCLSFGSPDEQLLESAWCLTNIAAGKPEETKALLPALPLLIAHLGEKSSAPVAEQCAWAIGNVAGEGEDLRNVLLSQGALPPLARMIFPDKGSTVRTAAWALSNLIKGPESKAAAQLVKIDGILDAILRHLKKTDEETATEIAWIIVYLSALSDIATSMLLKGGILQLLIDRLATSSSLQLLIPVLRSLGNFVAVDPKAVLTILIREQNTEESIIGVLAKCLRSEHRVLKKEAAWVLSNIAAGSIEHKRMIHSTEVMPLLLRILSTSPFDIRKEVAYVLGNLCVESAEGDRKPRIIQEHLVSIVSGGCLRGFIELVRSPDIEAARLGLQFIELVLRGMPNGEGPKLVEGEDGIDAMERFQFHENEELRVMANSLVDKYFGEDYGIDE

[4] = target: T3, importin α6 (IMPα6), Arabidopsis thaliana, recombinant (Arabidopsis thaliana, UniProt Q9FWY7 1-538); assay: as above
T3 construct: importin alpha isoform 6 of Arabidopsis thaliana; gene synthesised by GenScript, cloned into pETEV21a; source: E. coli BL21pRARE, purified (Ni2+-IMAC)
T3 sequence (looked up): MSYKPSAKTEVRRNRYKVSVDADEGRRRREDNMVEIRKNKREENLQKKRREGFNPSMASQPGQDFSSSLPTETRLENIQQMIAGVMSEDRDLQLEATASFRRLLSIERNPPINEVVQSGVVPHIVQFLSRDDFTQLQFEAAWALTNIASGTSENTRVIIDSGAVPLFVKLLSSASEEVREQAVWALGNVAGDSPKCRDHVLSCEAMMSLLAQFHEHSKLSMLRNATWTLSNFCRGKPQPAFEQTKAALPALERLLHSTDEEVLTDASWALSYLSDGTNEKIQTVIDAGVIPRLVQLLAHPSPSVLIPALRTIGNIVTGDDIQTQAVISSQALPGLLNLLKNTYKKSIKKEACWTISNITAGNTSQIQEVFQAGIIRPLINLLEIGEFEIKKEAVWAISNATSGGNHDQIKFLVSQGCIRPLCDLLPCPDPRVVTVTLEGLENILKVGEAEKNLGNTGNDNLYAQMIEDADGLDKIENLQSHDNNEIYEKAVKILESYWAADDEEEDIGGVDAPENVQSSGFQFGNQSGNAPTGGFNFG

[5] = target: T4, importin α2 (IMPα2), Arabidopsis thaliana, recombinant (Arabidopsis thaliana, UniProt F4JL11 1-535); assay: as above
T4 construct: importin alpha isoform 2 of Arabidopsis thaliana; gene isolated from A. thaliana, cloned into pETEV21a; source: E. coli BL21pRARE, purified (Ni2+-IMAC)

[6] = target: T1, importin α4 (IMPα4), Arabidopsis …; assay: as above
[7] = target: T5, importin α3 (IMPα3), Arabidopsis thaliana, recombinant (Arabidopsis thaliana, UniProt O04294 1-531); assay: as above
T5 construct: importin alpha isoform 3 of Arabidopsis thaliana; gene isolated from A. thaliana, cloned into pETEV21a; source: E. coli BL21pRARE, purified (Ni2+-IMAC)

[8] = target: T6, importin α5 (IMPα5), Arabidopsis thaliana, recombinant (Arabidopsis thaliana, UniProt Q9FJ09 1-519); assay: as above
T6 construct: importin alpha isoform 5 of Arabidopsis thaliana; gene synthesised by GenScript, cloned into pETEV21a; IMPα5 was additionally cloned into pETEV16b (N-terminal deca-His-tag); source: E. coli BL21pRARE, purified (Ni2+-IMAC)
T6 sequence (looked up): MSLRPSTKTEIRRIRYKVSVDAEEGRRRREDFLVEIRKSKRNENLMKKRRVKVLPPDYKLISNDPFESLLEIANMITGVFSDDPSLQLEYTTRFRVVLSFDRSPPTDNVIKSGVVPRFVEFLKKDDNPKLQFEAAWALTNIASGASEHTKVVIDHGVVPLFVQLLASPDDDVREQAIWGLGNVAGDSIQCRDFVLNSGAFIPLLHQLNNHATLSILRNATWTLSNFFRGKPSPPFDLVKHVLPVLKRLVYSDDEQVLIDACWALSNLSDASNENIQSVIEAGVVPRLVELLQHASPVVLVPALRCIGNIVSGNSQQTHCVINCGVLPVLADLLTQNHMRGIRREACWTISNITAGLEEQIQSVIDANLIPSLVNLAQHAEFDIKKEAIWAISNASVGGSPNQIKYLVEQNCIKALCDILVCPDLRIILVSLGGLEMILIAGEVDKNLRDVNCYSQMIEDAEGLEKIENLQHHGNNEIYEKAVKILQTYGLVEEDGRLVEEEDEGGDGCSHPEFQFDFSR

[9] = target: T7, importin α8 (IMPα8), Arabidopsis thaliana, recombinant (Arabidopsis thaliana, UniProt Q9FJ92 1-441); assay: as above
T7 construct: importin alpha isoform 8 of Arabidopsis thaliana (contains only ARM repeats, no IBB domain); gene isolated from A. thaliana, cloned into pETEV21a; source: E. coli BL21gold, purified (Ni2+-IMAC)
T7 sequence (looked up): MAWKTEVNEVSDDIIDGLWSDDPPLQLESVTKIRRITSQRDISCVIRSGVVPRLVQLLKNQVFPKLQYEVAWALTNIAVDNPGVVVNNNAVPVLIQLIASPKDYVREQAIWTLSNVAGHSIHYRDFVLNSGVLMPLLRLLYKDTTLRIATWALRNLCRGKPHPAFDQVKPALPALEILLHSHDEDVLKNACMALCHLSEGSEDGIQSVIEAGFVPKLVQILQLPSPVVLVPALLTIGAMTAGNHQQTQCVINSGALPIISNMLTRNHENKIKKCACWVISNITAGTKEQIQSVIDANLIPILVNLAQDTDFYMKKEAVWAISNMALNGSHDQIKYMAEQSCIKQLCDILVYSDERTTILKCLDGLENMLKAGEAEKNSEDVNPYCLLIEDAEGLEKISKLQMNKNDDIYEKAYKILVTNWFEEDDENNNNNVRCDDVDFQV

T1 sequence (O80480 whole entry, canonical isoform): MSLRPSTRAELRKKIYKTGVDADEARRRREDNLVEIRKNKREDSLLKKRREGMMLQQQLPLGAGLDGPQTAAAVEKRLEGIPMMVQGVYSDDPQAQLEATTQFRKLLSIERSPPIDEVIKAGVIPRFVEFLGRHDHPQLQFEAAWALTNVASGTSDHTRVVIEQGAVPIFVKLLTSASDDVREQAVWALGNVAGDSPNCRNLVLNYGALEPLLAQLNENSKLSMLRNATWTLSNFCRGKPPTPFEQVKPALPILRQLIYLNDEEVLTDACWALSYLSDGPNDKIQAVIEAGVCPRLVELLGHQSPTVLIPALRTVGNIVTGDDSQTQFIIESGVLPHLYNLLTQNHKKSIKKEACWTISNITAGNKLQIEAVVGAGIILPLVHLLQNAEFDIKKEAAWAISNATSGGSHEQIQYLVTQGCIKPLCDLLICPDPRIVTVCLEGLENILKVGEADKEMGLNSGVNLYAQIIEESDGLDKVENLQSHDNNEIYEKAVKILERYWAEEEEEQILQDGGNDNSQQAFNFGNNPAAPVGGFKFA
T5 sequence (O04294 whole entry, canonical isoform): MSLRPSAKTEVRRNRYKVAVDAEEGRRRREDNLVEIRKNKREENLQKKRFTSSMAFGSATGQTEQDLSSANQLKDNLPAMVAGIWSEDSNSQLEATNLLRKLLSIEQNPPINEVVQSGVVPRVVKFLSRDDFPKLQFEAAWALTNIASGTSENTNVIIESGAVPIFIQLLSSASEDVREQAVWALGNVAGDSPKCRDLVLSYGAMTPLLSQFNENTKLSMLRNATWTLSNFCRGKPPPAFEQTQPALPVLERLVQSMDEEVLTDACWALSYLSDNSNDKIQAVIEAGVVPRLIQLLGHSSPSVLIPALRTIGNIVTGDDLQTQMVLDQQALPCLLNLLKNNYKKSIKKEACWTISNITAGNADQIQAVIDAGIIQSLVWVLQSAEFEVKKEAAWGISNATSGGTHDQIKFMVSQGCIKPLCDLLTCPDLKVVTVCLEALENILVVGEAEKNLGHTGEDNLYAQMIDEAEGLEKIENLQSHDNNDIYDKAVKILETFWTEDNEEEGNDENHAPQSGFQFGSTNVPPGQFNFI
T4 sequence (F4JL11 whole entry, canonical isoform): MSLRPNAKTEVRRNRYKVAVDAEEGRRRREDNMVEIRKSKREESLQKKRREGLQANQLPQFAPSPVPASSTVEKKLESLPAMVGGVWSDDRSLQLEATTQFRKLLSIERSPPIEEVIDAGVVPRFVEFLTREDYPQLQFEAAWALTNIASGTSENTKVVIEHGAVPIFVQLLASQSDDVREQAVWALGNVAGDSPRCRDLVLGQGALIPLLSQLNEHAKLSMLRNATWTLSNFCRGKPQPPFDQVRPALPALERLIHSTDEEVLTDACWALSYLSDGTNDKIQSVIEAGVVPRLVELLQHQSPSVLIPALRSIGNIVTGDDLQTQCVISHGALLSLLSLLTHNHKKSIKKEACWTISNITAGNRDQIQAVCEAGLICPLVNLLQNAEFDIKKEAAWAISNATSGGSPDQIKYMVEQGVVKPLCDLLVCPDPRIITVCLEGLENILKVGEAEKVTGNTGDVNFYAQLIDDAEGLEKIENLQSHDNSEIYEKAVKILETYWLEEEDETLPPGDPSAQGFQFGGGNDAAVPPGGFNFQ

B1: N41P‐1 (EIN2 residues 1229–1269) (peptide, UniProt Q9S814 1229-1269, looked up)
peptide: KDVEMAISCRKGRTGTAAGDVAFPKGKENLASVLKRYKRRL
notes: 41 residues; The methods speak of amidated C-termini and acetylated N-termini of 'the D-ri-peptides'; whether this holds for N41P-1 is not clear; also called extended EIN2‐NLS probe N41P‐1; source: synthetic peptide, bought: GenScript
Kd [1]: 9.8 µM
Kd [2]: 8.1 ± 1.1 µM

B2: TAMRA‐NOP‐1 (EIN2 NLS peptide, N‐terminally labeled with 5‐TAMRA) (peptide)
peptide: {5‑TAMRA}-LKRYKRRL
notes: also called fluorescently labeled NOP‐1; source: synthetic peptide (solid-phase peptide synthesis, Fmoc, made in house)
Kd [3]: 13.8 ± 0.9 µM
Kd [4]: 8.7 ± 1.5 µM
binding result [5]: binds
Kd [6]: ~6 µM
binding result [7]: binds
Kd [8]: 12.9 ± 0.9 µM
Kd [9]: 7.9 ± 0.2 µM

B3: GB1‐AtEIN2C^1215–1281 (domain or fragment, Arabidopsis thaliana, UniProt Q9S814 1215-1281, looked up)
chain: KGKCTTAVTLLDLIKDVEMAISCRKGRTGTAAGDVAFPKGKENLASVLKRYKRRLSNKPVGMNQDGP
notes: cloned into pETEV16b with a GB1-domain at the N terminus to enhance solubility; also called GB1_AtEIN2^1215–1281; shortened EIN2 CEND; source: E. coli BL21pRARE, purified (Ni2+-IMAC); not shown: GB1 domain, N-terminal, kept
Kd high [1]: 21.4 µM
Kd low [1]: 0.455 µM
Kd [2]: 22.1 ± 2.8 µM

B4: NOP‐1 (EIN2 NLS peptide, EIN2 residues 1262–1269) (peptide)
peptide: LKRYKRRL
notes: 8 residues; The methods speak of amidated C-termini and acetylated N-termini of 'the D-ri-peptides'; whether this holds for NOP-1 is not clear; also called EIN2‐NLS core motif; basic EIN2‐NLS probe; source: synthetic peptide, bought: GenScript
Kd [1]: 7.6 µM
Kd [2]: 4.1 ± 0.4 µM
